Laboratory results taken from patent US20210054054A1 (ROCKEFELLER UNIVERSITY, published 2021).

Columns and labels:
human CD4 receptor [1] = target: T1, human CD4 receptor (human, UniProt P01730 26-396); assay: competition ELISA on CD4, competitor HRP-labeled wild type ibalizumab, pH 7.4
T1 construct: also called human CD4 protein

human CD4 receptor [2] = target: T1, human CD4 receptor; assay: competition ELISA on CD4, competitor HRP-labeled wild type ibalizumab; fold reduced binding vs wt at pH 5.0 over that at pH 7.4

Binder	pH 5.0/pH 7.4 differential (human CD4 receptor [2])	fold reduced CD4 binding vs wt at pH 7.4 (human CD4 receptor [1])	further results
ibalizumab LC S56H variant (antibody, human IgG1, kappa, V domains shown) VH: QVQLQQSGPEVVKPGASVKMSCKASGYTFTSYVIHWVRQKPGQGLDWIGYINPYNDGTDYDEKFKGKATLTSDTSTSTAYMELSSLRSEDTAVYYCAREKDNYATGAWFAYWGQGTLVTVSS VL: DIVMTQSPDSLAVSLGERVTMNCKSSQSLLYSTNQKNYLAWYQQKPGQSPKLLIYWASTREHGVPDRFSGSGSGTDFTLTISSVQAEDVAVYYCQQYYSYRTFGGGTKLEIKR	0.8		fold vs wt affinity at pH 7.4 (human CD4 receptor [1]): 1.3 fold
ibalizumab light chain S93/Y94 double histidine mutant (antibody, human IgG1, kappa, V domains shown, also called combination of S93 and Y94; S93/Y94 double mutant) VH: QVQLQQSGPEVVKPGASVKMSCKASGYTFTSYVIHWVRQKPGQGLDWIGYINPYNDGTDYDEKFKGKATLTSDTSTSTAYMELSSLRSEDTAVYYCAREKDNYATGAWFAYWGQGTLVTVSS VL: DIVMTQSPDSLAVSLGERVTMNCKSSQSLLYSTNQKNYLAWYQQKPGQSPKLLIYWASTRESGVPDRFSGSGSGTDFTLTISSVQAEDVAVYYCQQYYHHRTFGGGTKLEIKR	3		
ibalizumab variant with a histidine mutation at residue S93 in the light chain (antibody, human IgG1, kappa, V domains shown, also called S93H) VH: QVQLQQSGPEVVKPGASVKMSCKASGYTFTSYVIHWVRQKPGQGLDWIGYINPYNDGTDYDEKFKGKATLTSDTSTSTAYMELSSLRSEDTAVYYCAREKDNYATGAWFAYWGQGTLVTVSS VL: DIVMTQSPDSLAVSLGERVTMNCKSSQSLLYSTNQKNYLAWYQQKPGQSPKLLIYWASTRESGVPDRFSGSGSGTDFTLTISSVQAEDVAVYYCQQYYHYRTFGGGTKLEIKR		< 3 fold	
ibalizumab variant with a histidine mutation at residue Y92 in the light chain (antibody, human IgG1, kappa, V domains shown, also called Y92H) VH: QVQLQQSGPEVVKPGASVKMSCKASGYTFTSYVIHWVRQKPGQGLDWIGYINPYNDGTDYDEKFKGKATLTSDTSTSTAYMELSSLRSEDTAVYYCAREKDNYATGAWFAYWGQGTLVTVSS VL: DIVMTQSPDSLAVSLGERVTMNCKSSQSLLYSTNQKNYLAWYQQKPGQSPKLLIYWASTRESGVPDRFSGSGSGTDFTLTISSVQAEDVAVYYCQQYHSYRTFGGGTKLEIKR		< 3 fold	fold loss of affinity vs wt at pH 7.4 (human CD4 receptor [1]): > 2.6 fold
ibalizumab variant with a histidine mutation at residue Y94 in the light chain (antibody, human IgG1, kappa, V domains shown, also called Y94H; LC Y94) VH: QVQLQQSGPEVVKPGASVKMSCKASGYTFTSYVIHWVRQKPGQGLDWIGYINPYNDGTDYDEKFKGKATLTSDTSTSTAYMELSSLRSEDTAVYYCAREKDNYATGAWFAYWGQGTLVTVSS VL: DIVMTQSPDSLAVSLGERVTMNCKSSQSLLYSTNQKNYLAWYQQKPGQSPKLLIYWASTRESGVPDRFSGSGSGTDFTLTISSVQAEDVAVYYCQQYYSHRTFGGGTKLEIKR		< 3 fold	
ibalizumab light chain triple Y92H/S93H/Y94H variant (antibody, human IgG1, kappa, V domains shown) VH: QVQLQQSGPEVVKPGASVKMSCKASGYTFTSYVIHWVRQKPGQGLDWIGYINPYNDGTDYDEKFKGKATLTSDTSTSTAYMELSSLRSEDTAVYYCAREKDNYATGAWFAYWGQGTLVTVSS VL: DIVMTQSPDSLAVSLGERVTMNCKSSQSLLYSTNQKNYLAWYQQKPGQSPKLLIYWASTRESGVPDRFSGSGSGTDFTLTISSVQAEDVAVYYCQQYHHHRTFGGGTKLEIKR	3.4		
